Substrate in data set [1]: NCCc1c[nH]cn1
Nature of the data set: histamine degradation monitored by LC-MS. It is filed as biochemical, Lactiplantibacillus plantarum. The conditions noted are these: 50 °C, pH not stated for this assay.

Substrate in data set [2]: CCn1c(=NN=c2sc3cc(S(=O)(=O)O)ccc3n2CC)sc2cc(S(=O)(=O)O)ccc21
Nature of the data set: ABTS oxidation, visible absorption, Lineweaver-Burk. The class given is biochemical, Lactiplantibacillus plantarum. The following applies: MES buffer, pH 3.5, 50 °C, 2 h. The text has this:
ABTS oxidation, visible absorption, Lineweaver-Burk on MCO (multicopper oxidase)

B1: MCO (multicopper oxidase) (Lactiplantibacillus plantarum WCFS1) (protein)
chain: MAKKVYTDYFFDEPAYNTHDGGYIPLVTPKVEPQPLAIPPLLKPDRQTDTDDYYTVTAQESETQFLPGKKTKTWGYNAGFLGQTIVFRNGKQTHIDLENKLPELTTFHWHGLNVPGPITDGGCHAPVYPGETNHIDFKVHQPAATTWLHAHPCPSTATQVWKGLATMVIIKDDVEDQLPLPRNYGVDDIPLVLQDREFHDDNQFDYRADYDPDGVQGHTALVNGTVNPYFDVTTQRVRLRILDGSNRREWRLHFNDDLEFAQVASDGGILPAPVYMTKVMMTCAERDEIVVDFGQYQPGDEVTLMTDDTPLCRFRIKSFVPDDTKLPEHLVDIPDETPTPDLPVRTITMDGMDDEVALDGKKFDMSRIDARQKVGDVAIWEIRNTNSTENGMVHPFHVHGTQFRVLARNDGPVYPNEHGLKDTVGVNPGETVRIKVKFELTGVYMYHCHIIEHEDGGMMAQIESYDPQHPQTYHLMDMDTLRNAFAKEQGIKPEDVWMPGM
notes: full length, 501 residues, no signal peptide; pET-28a EcoRI/HindIII, N-terminal His-tag (about 67 kDa on SDS-PAGE), E. coli BL21 (DE3), Ni-NTA; primers imply N-terminus MAKKVYTD and C-terminus WMPGM; peptides EFHDDNQFDYR, GLATMVIIKDDVEDOLPLPR
By Km is commonly meant the concentration of substrate that gives half-maximal velocity. For orientation: kcat means the maximal rate divided by the concentration of active sites. In general, kcat/Km refers to the second-order rate constant that governs catalysis at low substrate concentration. With B1, in data set [1], the Km worked out at 2070 ± 180 µM. Moreover, in data set [2], the Km turned out to be 2180 ± 130 µM, the kcat was 3.77 ± 0.09 s⁻¹ and the kcat/Km came out at 1730 ± 160 M⁻¹ s⁻¹.

These data come from article PMC10672810, “Research of Multicopper Oxidase and Its Degradation of Histamine in Lactiplantibacillus plantarum LPZN19” (Microorganisms, 2023).
